Results reported in the RNAGym collection of RNA variant scans (doi:10.1073/pnas.2313332121).
This sample holds only a part of the variants without activity.

B1: TPR 5TU (parent)
chain: GGAUCUUCUCGAUCUAACAAAAAAGACAAAUCUGCCACAAAGCUUGAGAGCAUCUUCGGAUGCAGAGGCGGCAGCCUUCGGUGGCGCGAUAGCGCCAACGUUCUCAACUAUGACACGCAAAACGCGUGCUCCGUUGAAUGGAGUUUAUCAUG

Variants of: B1
Experiment: polymerase ribozyme fitness, log enrichment relative to wild type (log ratio); higher = more active; in vitro selection for triplet polymerase activity
Procedure, shortened: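 The heterodimeric triplet polymerase ribozyme's subunits were each mutagenized into PCR-built libraries and transcribed. Every library was selected once, in triplicate, by annealing with a biotinylated primer, the partner subunit and triplets, incubating frozen at −7 °C, gel-excising extended constructs, capturing on streptavidin beads and running RT-PCR. Input and output libraries were Illumina-sequenced, with genotypes kept only at ≥10 input reads and ≥1 read per output. Fitness, from inverse-variance-weighted replicate averages, is the base-2 logarithm of genotype enrichment over wild-type enrichment.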
For GGAUCUUCUCGAUCUAACAAAAAAGACAAAUCUGCCACAAAGCUUGAGAGCAUGUUCGGAUGCAGAGGCGGCAGCCUUCGGUGGCGCGAUAGCGCCAACGUUCUCAACUAUGACAUGCAAAACGCGUGCUCCGUUGAAUGGAGUUUAUCAUG [C54G C116U], the “polymerase ribozyme fitness (log ratio)” value was -1.08.
For GGAUCUUCUCGAUCUAACAAAAAAGACAAAUCUGCCACAAAGCUUGAGAGCAUUUUCGGAUGCAGAGGCGGCAGCCUUCGGUGGCGCGAUAGCGUCAACGUUCUCAACUAUGACACGCAAAACGCGUGCUCCGUUGAAUGGAGUUUAUCAUG [C54U C95U], the “polymerase ribozyme fitness (log ratio)” value was -0.851.
For GGAUCUUCUCGAUCUAACAAAAAAGACAAAUCUGCCACAAAGCAUGAGAGCAUCUUCGGAUGCAGAGGCGGCAGCCUUCGGGGCCGGGAUAGCGCCAACGUUCUCAACUAUGCCACGUAAAACGCGUGCUCCGUUGAAUGGAGUUUAUCAUG [U44A U82G G84C C87G A113C C118U], the “polymerase ribozyme fitness (log ratio)” value was no more than -4.2.
For GGAUCUUCUCGAUCUAACAAAAAAGACAAAUCUGCCUCAAAGCUUGAGAGCAUCUUCGGAAGCAGAGGCGGCAGCCUUCGGUGGUGCGAUAGCGCCAACGUUCUCAACUAUGACACGCAAAACGCGUGCUCCGUUGAAUGGAGUUUAUCAUG [A37U U61A C85U], the “polymerase ribozyme fitness (log ratio)” value was -2.89.
With GGAUCUUCUCGAUGUAACAAAAAAGACAAAUCUGCCACAAAGCUUGAGAGCAUCUUCGGAUGCAGAGGCGGCAGCCUUCGGUGGAGCGAUAGCGCCAACGUUCUCAACUAUGACAUGCAAACCGCGUGCUCCGUUGAAUGGAGUUUAUCAUG [C14G C85A C116U A122C] the “polymerase ribozyme fitness (log ratio)” value was no more than -4.2.
For GGAUCUUCUCGAUCUAACAAAAAAGACAAAUCUGCCACAAAGCUUGAAAGCAUCUUCGUAUGCAGAGGCGGCAGCCUUCGGUGGCGUGAUAGCGCCUACGUUCUCAACUAUGACACGCAAAACGCGUGCUCCGUUAAAUGGAGUUUAUCAUG [G48A G59U C87U A97U G136A], the “polymerase ribozyme fitness (log ratio)” value was -1.99.
For GGAUCUUCUCGAUCUAACAAAAAAGACAACUCUGCCACAAAGCUUGAGAGCAUCUUCGGAUGCAGAGGCGGGAGCCUUCGGUGGCUCGAUAGCGCCAACGUUCUCGACUAUGACACGCAAAACGCGUGCUCCGUUGAAUGGAGCUUAUGAUG [A30C C72G G86U A106G U144C C149G], the “polymerase ribozyme fitness (log ratio)” value was no more than -4.2.
In the case of GGAUCUUCUCGAUCUAACAAAUAAGACAAAUCUGCCACAAAGCUUGAGAGCAUCUUCGGAUGCAGAGGCGGCAGCCUUCGGUGGCGCGAUAGCGCCAACGUUCUCAACUAUGACACGCAAAACGCGUGCUCCGUUGAAUGGAGUUUAUUAUG [A22U C149U], the “polymerase ribozyme fitness (log ratio)” value is reported as 0.0648.
For GGAUCUUCUCGAUCUAACAAAAAAGACAAAUCUGCCAGAAAGCUUGAGAGCAUCUUCCGAUGCAGAGGCGGCAGCCUUCGGUGACGCGAUAGCGCCAACGUUCUCAACUAUGACACGCUAAACGCGUGCUCCGUUGAAUGGAGUUUAUCAUG [C38G G58C G84A A119U], the “polymerase ribozyme fitness (log ratio)” value was -0.795.
In the case of GGAUCUUCUCGAUCUAACAAAAAAGACAAAUCUGCCACAAAGCUUGAGAGUAUCUUCGGAUGCAGAGGCGGCAGCCUUCGGUGGCGCGAUAUCGCCAACGUUCUCAACUAUGACACGCAAAACGCGUGCUCCGUUGAAUGGAGUUUAUCAUG [C51U G92U], the “polymerase ribozyme fitness (log ratio)” value is reported as -1.86.
For GGAUCUUCUCGAUCUAACAAAAAAGACAAAUCUGCCACAAAGCUUGAGAGCAUCUUGGGAUGCAGAGGCGGCAGCCUUCGGUGGCGCGAUGGCGCCAACGUUCUCAACUAUGACACGCAAAACGCGUGCUCCGUUGAAUGGAGUUUCUCAUG [C57G A91G A147C], the “polymerase ribozyme fitness (log ratio)” value was -3.13.
In the case of GGAUGUUCUCGAUCUAACAAAAAAGACAAAUCUGCCACAAAGCUUGAGAGCAUCGUCGGAUGCAGAGGCGGCAGCCUUCGGUUGCGCGAUAGCGCCAACGCUCUCAACUAUGACACGCAAAACGCGUGCUCCGUUGAAUGGAGUUUAUCAUG [C5G U55G G83U U101C], the “polymerase ribozyme fitness (log ratio)” value is reported as -2.49.
For GGAUCUUCUCGAUCUAACAAAAAAGACAAAUCUGCCACAAAGCUUGAGAGCAUAUUCGGAUGCAGAGGCGGCAGCCUUCGGUGGCGCGAUAGCGCCAACGAUCUCAACUAUGACACGCAAAACGCGUGCUCCGUUGAAUGGAGUUUAUCAUG [C54A U101A], the “polymerase ribozyme fitness (log ratio)” value was -2.39.
For GGAUCUUCUCGAUCUAACAAAAAAGACAAAUCUGCCACAAAGCUAGAGAGCAUCUUCGGAUGCAGAGGCGGCAGCCUUCGGUGACGCGAUAGCGCCAACGUUCUCAACUAUGACCCGCAAAACGCGUGCUCCGUUGAAUGGAGUUUAUCAUG [U45A G84A A115C], the “polymerase ribozyme fitness (log ratio)” value was -3.88.
With GGAUCUUCUCGAUCUAACAAAAAAGACAAAUCUGCCACAUAGCUUGAGAGCAUCUUCGGAUGCAGAGGCGGCAGCCUUCGGUGGCGCGAUAGUGCCAACGGUCUCAACUAUGACACGCAAAACGCGUUCUCCGUUGAAUGGAGUUUAUCAUG [A40U C93U U101G G128U] the “polymerase ribozyme fitness (log ratio)” value was -4.04.
In the case of GGAUCUUCUCGAUCUAACAAAAAAGACAAAUCUGCCACAAUGCUUGAGAGCAUCUUCGGAUGCAGAGGCGGCAGCCUUCGGUUGCGCGAUAGCGCCAACGUUCUCAACUAUGACACGCAAAACGCGUGCUCCGUUGAAUGGAGUUUAUCAUG [A41U G83U], the “polymerase ribozyme fitness (log ratio)” value is reported as -1.35.
With GGAUCUUCUCGAUCUAACAAAAAAGACAAAUCUGCCACAAAGCUUGAGAGCAUCUUCGGAUGCAGAGGCGGCAGCCUUCGGCGGCGCCAUAGCGCCAACGUUCUUAACUAUGACACGCAAAACGCGUGCUCCGUUGAAUGAAGUUUAUUAUG [U82C G88C C105U G141A C149U] the “polymerase ribozyme fitness (log ratio)” value was no more than -4.2.
In the case of GGAUCUUCUCGAUCUAACAAAAAAGACAAAUCUGCCACAAAGCUUGAGAGCAUCUUCGGUUGCAGAGGCGGCAGCCUUCGGUGGCGCGAUGGCGCCAACGUUCUCAACUAUGACACGCAAAACGCGUGCUCCGUUGAAUGAAGUGUAUCAUG [A60U A91G G141A U145G], the “polymerase ribozyme fitness (log ratio)” value is reported as -3.98.
For GGAUCUUCUCGAUCUAACAAAAAAGACAAAUCUGCCACAAAGCUUAAGAGCAUCUUCGCAUGCAGAGGCGGCAGCUUUCGGUGGCGCGAUAGCGCUAACGUUCUCAACUAUGACAUGCAAAACGCGUGCUCCGUUGAAUGGAGUUUAUCAUG [G46A G59C C76U C96U C116U], the “polymerase ribozyme fitness (log ratio)” value was no more than -4.2.
